The target of assay [1] is human oncostatin M (OSM), in-house recombinant, mammalian-cell derived (human) (UniProt P13725). The experiment in a line: SPR (Biacore 3000), mAb captured by anti-Fc, OSM as analyte. For orientation: SPR reads the build-up and loss of mass on a sensor chip optically.
Assay [2] deals with Cynomolgus monkey (Macaca fascicularis) oncostatin M, in-house recombinant (Cynomolgus monkey (Macaca fascicularis)). The assay is described as above.
For assay [3], the target named is human oncostatin M (OSM), in-house recombinant, mammalian-cell derived (human) (UniProt P13725). The experiment in a line: SPR competition, human OSM captured on immobilized M64 (competitor), sample injected at 300 nM, second chip.
The target is the same in assay [4]. Put plainly: cell-based or functional assay.
For assay [5] the target is unchanged. Put plainly: SPR competition, human OSM captured on immobilized M55 (competitor), sample injected at 300 nM, second chip.
For assay [6] the target is unchanged. The experiment in a line: SPR competition, human OSM captured on immobilized M71 (competitor), sample injected at 300 nM.
The target is the same in assay [7]. Put plainly: SPR competition, human OSM captured on immobilized M2 (competitor), sample injected at 300 nM, second chip.
Assay [8] shares this target. Put plainly: SPR competition, human OSM captured on immobilized M2 (competitor), sample injected at 300 nM.
Assay [9] has the same target. Put plainly: SPR competition, human OSM captured on immobilized M69 (competitor), sample injected at 300 nM.
Assay [10] has the same target. Put plainly: SPR competition, human OSM captured on immobilized M54 (competitor), sample injected at 300 nM.

Cynomolgus monkey (Macaca fascicularis) oncostatin M, in-house recombinant (Cynomolgus monkey (Macaca fascicularis)), sequence (P13725 other isoform, or with tags, fused parts or gaps limits assumed): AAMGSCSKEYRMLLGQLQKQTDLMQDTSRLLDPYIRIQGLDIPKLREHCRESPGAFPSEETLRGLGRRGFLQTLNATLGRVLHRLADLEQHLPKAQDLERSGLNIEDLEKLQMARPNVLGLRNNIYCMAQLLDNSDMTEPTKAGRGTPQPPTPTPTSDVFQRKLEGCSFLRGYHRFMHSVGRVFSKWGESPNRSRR
human oncostatin M (OSM), in-house recombinant, mammalian-cell derived (human), sequence (P13725 26-221 limits assumed): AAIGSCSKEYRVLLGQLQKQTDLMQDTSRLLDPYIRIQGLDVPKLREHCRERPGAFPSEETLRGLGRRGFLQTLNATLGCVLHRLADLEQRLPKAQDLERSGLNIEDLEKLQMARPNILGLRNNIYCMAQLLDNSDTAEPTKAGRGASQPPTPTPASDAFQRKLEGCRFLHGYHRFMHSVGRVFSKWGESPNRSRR

As usually defined, the Kd is the free concentration of one partner at which half of the binding sites on the other are occupied at equilibrium, for simple one-to-one binding. Usually koff stands for the first-order rate constant of dissociation. One may read the kon as the second-order rate constant of association. As to MAB295 (R&D Systems) (antibody), the values for the Kd in [1] and in [2] were 1.85 nM and 19.8 nM, respectively. Moreover, the koff was determined as 0.00217 s⁻¹ in [1] and 0.0141 s⁻¹ in assay [2]. The kon worked out at 1.18e+06 M⁻¹ s⁻¹ in assay [1] and 710000 M⁻¹ s⁻¹ in assay [2]. Besides, the KD ratio Cyno/Human in [2] stood at 10.7. The Binding Level (RU) in [3] was 1950 RU; in assay [5] it was 2950 RU; in assay [6] it was 1990 RU; in assay [7], -80 RU; in assay [8], -83 RU; in [9], 2390 RU. For the same substance, the Binding Level (RU) in [10] was 2900 RU. Further, the EC50, pSTAT3 inhibition in A375 cells with 5 ng/ml hOSM in [4] was 72.1 ng/ml.

The record behind these values is patent publication US20160009798A1.
